Experimental data published in ChEMBL document CHEMBL1143972, “Electronic effects of para-substitution on acetophenones in the reaction of rat liver 3alpha-hydroxysteroid dehydrogenase” (Bioorg Med Chem, 2008).

What was measured:
[1] = molecular target: T1, 3-alpha-hydroxysteroid dehydrogenase (Rattus norvegicus) (UniProt P23457); experiment: Ratio of Vmax to Km for rat liver 3-alpha-HSD for formation of corresponding (R)-alcohol products
T1 sequence (whole entry): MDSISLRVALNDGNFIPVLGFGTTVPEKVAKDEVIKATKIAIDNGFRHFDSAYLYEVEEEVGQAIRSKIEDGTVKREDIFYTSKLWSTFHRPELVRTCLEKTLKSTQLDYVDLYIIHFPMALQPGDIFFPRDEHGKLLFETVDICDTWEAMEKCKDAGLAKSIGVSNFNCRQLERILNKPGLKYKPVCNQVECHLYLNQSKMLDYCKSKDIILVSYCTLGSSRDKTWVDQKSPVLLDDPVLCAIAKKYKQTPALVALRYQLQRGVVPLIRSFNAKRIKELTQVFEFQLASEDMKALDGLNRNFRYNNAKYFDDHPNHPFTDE

[2] = molecular target: T1, 3-alpha-hydroxysteroid dehydrogenase (Rattus norvegicus); experiment: Ratio of Vmax to Km for rat liver 3-alpha-HSD for formation of corresponding (S)-alcohol products
[3] = substrate: CC(=O)c1ccc(N(C)C)cc1; experiment: (§1) Activity of rat liver 3-alpha-HSD assessed as formation of corresponding (R)-alcohol products
[4] = substrate: CC(=O)c1ccc(C)cc1; experiment: as §1
[5] = substrate: CC(=O)c1ccc(N(C)C)cc1; experiment: (§2) Activity of rat liver 3-alpha-HSD assessed as formation of corresponding (S)-alcohol products per mg of protein
[6] = substrate: CC(=O)c1ccc(C#N)cc1; experiment: as §2
[7] = substrate: COc1ccc(C(C)=O)cc1; experiment: as §2
[8] = substrate: CC(=O)c1ccc([N+](=O)[O-])cc1; experiment: as §2
[9] = substrate: CC(=O)c1ccc(Br)cc1; experiment: as §2
[10] = substrate: CC(=O)c1ccc(C)cc1; experiment: as §2
[11] = substrate: CC(=O)c1ccccc1; experiment: as §2
[12] = substrate: CC(=O)c1ccc(N(C)C)cc1; experiment: (§3) Activity of rat liver 3-alpha-HSD assessed as formation of corresponding (R)-alcohol products per mg of protein
[13] = substrate: CC(=O)c1ccc(C)cc1; experiment: as §3
[14] = substrate: CC(=O)c1ccc(N(C)C)cc1; experiment: (§4) Activity of rat liver 3-alpha-HSD assessed as formation of corresponding (S)-alcohol products
[15] = substrate: CC(=O)c1ccc(C#N)cc1; experiment: as §4
[16] = substrate: COc1ccc(C(C)=O)cc1; experiment: as §4
[17] = substrate: CC(=O)c1ccc([N+](=O)[O-])cc1; experiment: as §4
[18] = substrate: CC(=O)c1ccc(Br)cc1; experiment: as §4
[19] = substrate: CC(=O)c1ccc(C)cc1; experiment: as §4
[20] = substrate: CC(=O)c1ccccc1; experiment: as §4

How did the Ratio [1] turn out when CC(=O)c1ccc(C)cc1 was run?
Its Ratio is 1.01 µL/min.

And the Ratio [2]?
The Ratio was 7.21 µL/min.

For CC(=O)c1ccccc1, which Ratio [2] is on record?
The Ratio was 49 µL/min.

How did the Ratio [2] turn out when CC(=O)c1ccc([N+](=O)[O-])cc1 was run?
Its Ratio is 61700 µL/min.

Which Ratio [2] does the source give for CC(=O)c1ccc(C#N)cc1 here?
Its Ratio is 9440 µL/min.

With COc1ccc(C(C)=O)cc1 as the molecule, how does the Ratio [2] read?
Its Ratio is 0.97 µL/min.

With CC(=O)c1ccc(N(C)C)cc1 as the molecule, how does the Ratio [1] read?
The Ratio was 0.09 µL/min.

And the Ratio [2]?
The Ratio was 0.41 µL/min.

Which Ratio [2] does the source give for CC(=O)c1ccc(Br)cc1 here?
Its Ratio is 30.6 µL/min.

B1: 3-alpha-hydroxysteroid dehydrogenase (Rattus norvegicus), P23457 (protein)
chain: T1 sequence (whole entry)
B1 was tested. Which Km [3] did it give?
Its Km is 19.2 mM.

And the Km [4]?
Its Km is 13.2 mM.

And the Vmax [5]?
Its Vmax is 0.009 µmol/min.

And the Vmax [6]?
Its Vmax is 1.08 µmol/min.

What about the Vmax [7] of the same molecule?
Its Vmax is 0.005 µmol/min.

What about the Vmax [8] of the same molecule?
The Vmax was 1.13 µmol/min.

What about the Vmax [9] of the same molecule?
Its Vmax is 0.315 µmol/min.

And the Vmax [10]?
The Vmax was 0.2 µmol/min.

What about the Vmax [11] of the same molecule?
Its Vmax is 0.51 µmol/min.

And the Vmax [12]?
Its Vmax is 0.002 µmol/min.

What about the Vmax [13] of the same molecule?
Its Vmax is 0.013 µmol/min.

What about the Km [14] of the same molecule?
Its Km is 21.9 mM.

What about the Km [15] of the same molecule?
The Km was 0.11 mM.

And the Km [16]?
Its Km is 5.59 mM.

And the Km [17]?
Its Km is 0.02 mM.

And the Km [18]?
The Km was 10.3 mM.

And the Km [19]?
Its Km is 27.7 mM.

And the Km [20]?
Its Km is 10.4 mM.
